From article PMC11757143, “Generation and characterization of OX40-ligand fusion protein that agonizes OX40 on T-Lymphocytes” (Frontiers in Immunology, 2025)

T1: OX40-Fc (Mus musculus, UniProt P47741)
T1 construct: made in house
T1 sequence (P47741 20-211 limits assumed): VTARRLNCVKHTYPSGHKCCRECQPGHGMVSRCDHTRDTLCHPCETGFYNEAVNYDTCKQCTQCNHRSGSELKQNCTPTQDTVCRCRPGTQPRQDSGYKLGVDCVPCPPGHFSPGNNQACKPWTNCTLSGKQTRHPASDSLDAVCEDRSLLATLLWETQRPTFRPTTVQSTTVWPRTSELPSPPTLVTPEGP


Experiments:
[1] = system: antigen-specific T cell responses of draining lymph node cells; experiment: Antigen recall responses of dLN cells from TNP-KLH/CFA-immunized mice (cytokine ELISA, MTT proliferation); assay type: in vivo, C57BL/6 mice; settings: for antigen-specific T cell responses (recall IFN-γ, IL-17, IL-4 production and proliferation of dLN cells): 20 µg i.p. on days 1 and 3, TNP-KLH/CFA day 0, dLN day 7, KLH recall 3 days
Excerpt: The following reagents were used for the measurement of cytokines from T cells: anti-IL-2 (JES6-1A12, 503701, BioLegend, San Diego, CA, U.S.A.) capture antibody, biotin-anti-IL-2 (JES6-5H4, 503803, BioLegend) detection antibody, anti-IFN-γ (R4-6A2, 505702, BioLegend) capture antibody, biotin-anti-IFN-γ (XMG1.2, 505804, BioLegend) detection antibody, anti-IL-4 (11B11, 504101, BioLegend) capture antibody, biotin-anti-IL-4 (BVD6-24G2, 504201, BioLegend) detection antibody, anti-IL-17A (TC11-18H10.1, 506901, BioLegend) capture antibody, biotin-anti-IL-17A (TC11-8H4, 507001, BioLegend) detection antibody, HRP streptavidin (405210, BioLegend), and 3,3’,5,5’-tetramethylbenzidine (TMB, 421101, BioLegend). The absorbance was measured at 450 nm or 620 nm using a FilterMax F5 (Molecular Devices, San Jose, CA, U.S.A.).
Groups of C57BL/6 mice from both male and female mice aged between 5 and 15 weeks were immunized subcutaneously at the footpad with 100 µg of 2,4,6-trinitrophenyl-conjugated keyhole limpet hemocyanin (TNP-KLH) emulsified in complete Freund’s adjuvant (CFA) (F5881, Merck) on day 0. Recombinant proteins in PBS were injected intraperitoneally on days 1 and 3. On day 7, pooled dLN cells were plated in 200 µL volumes in 96-well plates in triplicate in the presence or absence of KLH. Cells were harvested at 18 hours for the AIM assay. Culture supernatants were harvested at 72 hours for cytokine ELISA. Cell viability on day 3 was assessed with a 3-(4,5-dimethylthiazol-2-yl)-2,5-diphenyl-tetrazolium (MTT) (M2128, Merck) assay.

[2] = system: antigen-specific CD4+ T cells; experiment: Activation-induced marker (AIM) assay on dLN cells from TNP-KLH/CFA-immunized mice; assay type: in vivo, C57BL/6 mice; settings: 20 µg i.p. on days 1 and 3, KLH 18 hours
Method: To perform the activation-induced marker (AIM) assay, a valuable method to detect antigen-specific CD4^+ T cells ([29], [30]), draining lymph node (dLN) cells were initially incubated with IgG from rat serum (14131, Merck) to block nonspecific binding. The following antibodies were used for cell-surface staining: PE/Cyanine7 anti-mouse CD4 (GK1.5, 100421, BioLegend), Alexa Fluor® 488 anti-mouse CD25 (PC61, 102018, BioLegend), and APC anti-mouse CD134 (OX-40) (OX-86, 119413, BioLegend). For Foxp3 staining, cells were fixed and permeabilized with the eBioscience™ Foxp3/Transcription Factor Staining Buffer Set (00-5523-00, Thermo Fisher), then stained with PE Anti-Mo/Ra FOXP3, eBioscience™ (FJK-16s, 12-5773-08, Thermo Fisher). Data were acquired on a FACS Canto II or a Celesta (BD Biosciences, Franklin Lakes, NJ, U.S.A.) and analyzed with BD FACS Diva software version 9 or Flowing software version 2 (Turku Bioscience, Turku, Finland, http://flowingsoftware.btk.fi/).
Groups of C57BL/6 mice from both male and female mice aged between 5 and 15 weeks were immunized subcutaneously at the footpad with 100 µg of 2,4,6-trinitrophenyl-conjugated keyhole limpet hemocyanin (TNP-KLH) emulsified in complete Freund’s adjuvant (CFA) (F5881, Merck) on day 0. […] Cell viability on day 3 was assessed with a 3-(4,5-dimethylthiazol-2-yl)-2,5-diphenyl-tetrazolium (MTT) (M2128, Merck) assay.

OX40-Fc = biological target: T1, OX40-Fc; parameters: method as in PMID 36450532, PMID 37371066; settings: previous studies; ref [23], [24]; cited from earlier work

Molecule	antigen-specific T cell responses (recall IFN-γ, IL-17, IL-4 production and proliferation of dLN cells) [1]	induction of IL-4-producing cells ([1]; TNP-KLH/CFA-immunized mice, Figures 7, 9)	frequency of OX40+CD25+Foxp3+CD4+ cells (AIM assay) [2]	frequency of OX40+CD25+Foxp3-CD4+ cells (AIM assay) ([2]; compared to control (PBS) or OX86)	specific interaction with OX40 (OX40-Fc)
Fc-scOX40L: Fusion protein: Fc, PA, single-chain OX40L trimer (three OX40L joined by GGGSGGG linkers), His6; dimer of trimers (protein, left off: Fc (human IgG1: hinge, CH2, CH3), N-terminal, kept | PA tag (…), internal (between Fc and the first OX40L), kept | His6, C-terminal, kept, Fusion protein: Fc, PA, single-chain OX40L trimer (three OX40L joined by GGGSGGG linkers), His6; dimer of trimers) SSSPAKDPPIQRLRGAVTRCEDGQLFISSYKNEYQTMEVQNNSVVIKCDGLYIIYLKGSFFQEVKIDLHFREDHNPISIPMLNDGRRIVFTVVASLAFKDKVYLTVNAPDTLCEHLQINDGELIVVQLTPGYCAPEGSYHSTVNQVPLGGGSGGGSSSPAKDPPIQRLRGAVTRCEDGQLFISSYKNEYQTMEVQNNSVVIKCDGLYIIYLKGSFFQEVKIDLHFREDHNPISIPMLNDGRRIVFTVVASLAFKDKVYLTVNAPDTLCEHLQINDGELIVVQLTPGYCAPEGSYHSTVNQVPLGGGSGGGSSSPAKDPPIQRLRGAVTRCEDGQLFISSYKNEYQTMEVQNNSVVIKCDGLYIIYLKGSFFQEVKIDLHFREDHNPISIPMLNDGRRIVFTVVASLAFKDKVYLTVNAPDTLCEHLQINDGELIVVQLTPGYCAPEGSYHSTVNQVPL	elicited stronger antigen-specific T cell responses than Fc-MBL-OX40L (B) and scOX40L-Fc (D)	promoted the induction of IL-4-producing cells	significantly enhanced frequency	significantly increased frequency	specifically interact with OX40
scOX40L-Fc: Fusion protein: OX40L, Linker, OX40L, Linker, OX40L, Fc, PA, and His6 (protein, left off: Fc (human IgG1: hinge, CH2, CH3), C-terminal, kept | PA tag (…), C-terminal, kept | His6, C-terminal, kept) SSSPAKDPPIQRLRGAVTRCEDGQLFISSYKNEYQTMEVQNNSVVIKCDGLYIIYLKGSFFQEVKIDLHFREDHNPISIPMLNDGRRIVFTVVASLAFKDKVYLTVNAPDTLCEHLQINDGELIVVQLTPGYCAPEGSYHSTVNQVPLGGGSGGGSSSPAKDPPIQRLRGAVTRCEDGQLFISSYKNEYQTMEVQNNSVVIKCDGLYIIYLKGSFFQEVKIDLHFREDHNPISIPMLNDGRRIVFTVVASLAFKDKVYLTVNAPDTLCEHLQINDGELIVVQLTPGYCAPEGSYHSTVNQVPLGGGSGGGSSSPAKDPPIQRLRGAVTRCEDGQLFISSYKNEYQTMEVQNNSVVIKCDGLYIIYLKGSFFQEVKIDLHFREDHNPISIPMLNDGRRIVFTVVASLAFKDKVYLTVNAPDTLCEHLQINDGELIVVQLTPGYCAPEGSYHSTVNQVPL	triggered significantly higher T cell responses compared to the None (PBS) control group				
